Laboratory results from the supplement of paper PMC10567573.
± gives the standard deviation.

Assay: protein stability index of a GFP-peptide fusion (GPS, HEK-293T) (PSI 1-6); higher = more stable
Conditions: c terminus: a fixed tail appended
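Note: 24-mer peptide tiles fused after GFP, lentivirally expressed, FACS-sorted into six equal bins by GFP/DsRed ratio, decoded by Illumina sequencing, PSI is the read-weighted mean bin number.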

| Sequence | protein stability index (treatment: DMSO) | protein stability index (treatment: MLN4924 1 uM, 8 h) |
| --- | --- | --- |
| MTGLALKHMFERSFTQGEGARPLS [MATN2] | 2.69 ± 0.28 | 2.93 ± 0.42 |
| PSDLDSTGNSLNEPEEPSEIPERR [DLC1] | 5.64 ± 0.21 | 5.62 ± 0.23 |
| RGTHAVVGVATARAPLHSVGYTAL [SPSB4] | 2.68 ± 0.27 | 2.63 ± 0.41 |
| AEVVKILQTMLRQSAFLHLPLPEQ [INTS4] | 2.75 ± 0.51 | 2.89 ± 0.22 |
| QLAKELGATYLELHSLDDFYIGKY [RHOBTB3] | 2.56 ± 0.56 | 2.33 ± 0.27 |
| EPSHSVKVHTVPKPGKGADLSKPP [ATE1] | 4.96 ± 0.22 | 4.96 ± 0.27 |
| DSYESYGNSRSAPPTRGPPPSYGG [RBMX] | 4.27 ± 0.35 | 4.33 ± 0.4 |
| MVQVACGASHVLALSTERELFAWG [NEK8] | 2.59 ± 1.1 | 2.32 ± 0.84 |
| PYMSIQPAEDPDDYDDGFSMKHTA [SMARCE1] | 4.88 ± 0.12 | 4.78 ± 0.21 |
| EDVEDHYEMGEELGSGQFAIVRKC [DAPK3] | 5.06 ± 0.099 | 5.3 ± 0.35 |
| QTSSSSSQSETSSAVSTPSPVTRT [DLC1] | 5.45 ± 0.22 | 5.28 ± 0.38 |
| RDYKIQASRTWCFYNTEDIKDWED [PTGFR] | 3.28 ± 0.36 | 3.68 ± 0.49 |
| PMALLTIGSSSEKEIDDVIDEIIS [TFE3] | 2.98 ± 0.099 | 3.29 ± 0.095 |
| IAKELSKTYQETPEIDMFLNVATF [ZBED1] | 2.07 ± 0.24 | 2.12 ± 0.16 |
| DADILGLKKSNSAPSKKAAKDPGK [FBF1] | 5.18 ± 0.18 | 5.22 ± 0.42 |
| VSSQRFKSSVYRRYNDFVVFQEML [SNX8] | 2.1 ± 0.21 | 2.21 ± 0.39 |
| ALGNEGDTFHQDNQPSGLIRTYLG [RHOBTB3] | 3.48 ± 0.33 | 3.85 ± 0.37 |
| NLETNEWRYVSSLPQPLAAHAGAV [KLHL14] | 2.64 ± 0.36 | 2.87 ± 0.37 |
| GQRQLMVPARDGTSCKLTDLRGVC [ADAMTSL2] | 3.08 ± 0.28 | 3.01 ± 0.16 |
| GGTSVGSLGVPGSVGGVPGGTGSG [ZBTB22] | 4.41 ± 0.29 | 4.76 ± 0.088 |
| QLLKGRVDNISTLDSEIKKNSDGM [CD207] | 4.24 ± 0.16 | 4.23 ± 0.2 |
| DLKLGNFFINEAMELKVGDFGLAA [PLK2] | 2.14 ± 0.078 | 2.63 ± 0.17 |

| Sequence | protein stability index (treatment: DMSO) | protein stability index (treatment: MLN4924 1 uM, 8 h) |
| --- | --- | --- |
| FLGLGAPNCLSMGSRCLKTFEVPE [ZBED1] | 2.3 ± 0.2 | 2.06 ± 0.28 |
| TVQIICNTGYRLQNNENNISCVER [CFHR2] | 2.44 ± 0.4 | 2.64 ± 0.25 |
| HWDLAELLPNQSHGNQSAGEDQAF [SLC22A15] | 4.85 ± 0.28 | 4.8 ± 0.28 |
| NKVLVCPMKSAPVMLTLSDSKHVV [RBBP5] | 2.57 ± 0.25 | 2.75 ± 0.19 |
| FTTLTDRELEEYRREVERKQKGSE [ADD1] | 4.53 ± 0.35 | 4.72 ± 0.4 |
| YNSEILEEAISVVMSGKMSVSKAQ [LCOR] | 2.96 ± 0.17 | 3.03 ± 0.41 |
| KELVEFAQDDDRLREERKKAKKNK [CLINT1] | 5.49 ± 0.096 | 5.53 ± 0.17 |
| ISFTLYLIGFCMFVLSLVKKHYRL [CDS2] | 2.29 ± 0.48 | 2.44 ± 0.53 |
| ALSCHEQEMVVSSLVIGALLASLT [SLC2A12] | 3 ± 0.64 | 3.09 ± 0.29 |
| FPPDLVFRADQRSGPRQLLTLYNP [MOSPD3] | 3.13 ± 0.67 | 2.93 ± 0.29 |
| IRVVGRGAFGIVHLCLRKADQKLV [NEK8] | 3.02 ± 0.59 | 2.74 ± 0.81 |
| KLLKQMRILWKKIQENQRNLYEEG [TRIM43] | 1.88 ± 0.61 | 1.85 ± 0.081 |
| PGSLGPWKITIYDQENFQGKRMEF [CRYBA1] | 2.25 ± 0.33 | 2.18 ± 0.39 |
| TYEVRMRTNLPIFKLKESCVRRRY [SNX12] | 2.6 ± 0.15 | 2.54 ± 0.23 |
| PEKQKRKPGLRRSPIKKVRKSLAL [MYBL2] | 3.97 ± 0.2 | 3.83 ± 0.075 |
| LATRSNEKQELQELNDRFANFIEK [PRPH] | 4.43 ± 0.25 | 4.37 ± 0.095 |
| MKSCKNLKGGLQEVAEQLELERIG [CNOT7] | 4.39 ± 0.14 | 4.47 ± 0.18 |
| VREIVKECSNIPLSQPQQGEAMLA [GAN] | 4.28 ± 0.37 | 4.31 ± 0.36 |
| ALQRLDLRNNQISHKGAEELALAL [LRRC45] | 3.22 ± 0.24 | 3.05 ± 0.43 |
| FYGETVADYFATFVQREEQLQFLI [CDS1] | 2.71 ± 0.79 | 2.43 ± 0.32 |
| SQIRLNREHKETCEMDWSDKMEAY [TEKT4] | 4.47 ± 0.11 | 4.58 ± 0.28 |
| DPEVFKEMMRFIYTGRAPNLDKMA [SPOPL] | 2.25 ± 0.32 | 2.41 ± 0.26 |

| Sequence | protein stability index (treatment: DMSO) | protein stability index (treatment: MLN4924 1 uM, 8 h) |
| --- | --- | --- |
| MERPLCSHLCSCLAMLALLSPLSL [LOXL2] | 3.16 ± 0.19 | 3.46 ± 0.36 |
| DHRGRMVKHQCCPGCGYFCTAGNF [EHMT1] | 2.79 ± 0.14 | 3.14 ± 0.17 |
| KEEAGAPGGGAGMAAGFPYALRAY [CEBPB] | 3.06 ± 0.13 | 3.31 ± 0.15 |
| NEQVLTTEHEKKQKLETDAMFRLE [YJU2B] | 5.43 ± 0.15 | 5.43 ± 0.19 |
| DLSGRRLRDVNHEKAMAEWVKQQA [SDE2] | 4.24 ± 0.2 | 4.13 ± 0.37 |
| QKFDTLYAILDEKKSELLQRITQE [TRIM63] | 3.11 ± 0.095 | 3.21 ± 0.29 |
| EEAPAVTAGLKIFEPPAPGEGNSS [TNFSF13B] | 5.33 ± 0.23 | 5.3 ± 0.14 |
| RAPKVLGTTLVVGLLAGVGYFAFM [GDAP1] | 3.66 ± 0.29 | 3.17 ± 0.27 |
| KKKKDKEKEKEKHKVKAEEEKKAK [BRD3] | 5.2 ± 0.3 | 5.66 ± 0.13 |
| QCWKSLFIDTYSDVGRYIDHYAAI [FBXO3] | 2.65 ± 0.48 | 2.8 ± 0.72 |
| EERATRLAELQEQLKAVHEQLAAL [BRD3] | 4.59 ± 0.22 | 4.31 ± 0.062 |
| LEKVLEENAQKKRFNQVLKNLLHA [VPS39] | 2.85 ± 0.22 | 2.98 ± 0.23 |
| GDEMTSLSEYVSRMKETQKSIYYI [HSP90AB1] |  | 2.81 ± 0.3 |
| FPLLPDHATALVEAFRLKQQLHAR [PPEF2] | 2.74 ± 0.11 | 2.79 ± 0.09 |
| RQLLCLIDYYESKIRKIHTQRQYK [CEP70] | 2.44 ± 0.37 | 2.95 ± 0.25 |
| FLVDMFNDEIEEVRLQSIHTMRKI [INTS4] | 2.33 ± 0.13 | 2.54 ± 0.34 |
| SAESQGLDGAGLMGFVPHNGSLYG [ADAMTSL2] |  | 3.47 ± 1.6 |
| LNMFLAIINDTYSEVKEELAGQKD [PKD2L1] | 2.21 ± 0.3 | 2.37 ± 0.43 |
| NSLEGGTDATAFWWGEWTKWTACS [ADAMTSL2] |  | 3.25 ± 0.35 |
| PVDGARYRWQGRRWEPSGKAEPRL [TBX6] | 3.68 ± 0.41 | 3.86 ± 0.76 |
| DSDKLSGLWSRISHLVLPVQPVSS [TOR1AIP2] | 2.3 ± 0.24 | 2.32 ± 0.21 |
| EKTQDDLMKHQTNISELKRTFLET [EPB41L3] | 4.18 ± 0.68 | 4.2 ± 0.31 |
